Experiment: soluble on expression in E. coli; label from the status in PepcDB or PDB records

| Sequence | soluble on expression in E. coli |
| --- | --- |
| MCTELEPHQRLKKIIDEIGVSQTKLACKYLGRATINKIIRGERPLNAAQAYKFIQRFKDFGYNADIELILGIPTKTIDSTVKKFLSNTKKHYLEFDKLIDKLYKDKAIEVIWNVIEKLDIQDVYKNANIILKYLTKLMQYDLDADIYLKVNIELIKIYTATANYERAITAFNSLKNFSILDRETKVKCFLNVALAYYNLREYKSSIDIASRVMKLKIFDKYYFKASIIKANVLYTDGRINESIKEYEKIAIKAEKYHFIEYVATSESNIGYVFTEQNKFNEAKLHLDEAMKLFDSLNNYYKLNVYDNVFGFKIKNNTADFDTFKKVILLAYDTNDKFRIKNNVKQFVNYAIRNKKSKEIFTKIIDFLNPKGIDLDSSLKLEIMEYVSGNTFESVLKLEHHHHHH | not soluble |
| MSAALEKPQIIAHIQKSLNYTVFESKWIPCSAKFVCMGNFARGTGVMQIYEIQHGELQLVREIEKSKPIKCGTFGATSLQQRHLATGDFDGNLNVWNLEVPDSPVYSVKAHKEIINAIDGVGGLGIGDGAPEIVTGSRDGTVKVWDSRQKDTPVVNMEPTEGETKRDCWTVAFGHAFNDQDRCVCAGYDNGDIKLFDLRNMSLRWEKNIRNGVCSVEFDRKDINMNKLVATSLEGKFHVFDMRTQHPSKGFASVSEKAHKSTIWQVRHLPQNRDVFMTAGGAGNLHLWKYEYPAQRSKKGADDVEMGVAGSVNLLQNVTLSTQPISSLDWSPDKQGLCVCSSFDQSVRVLIVTKLNTV | soluble |
| MGSDKIHHHHHHMSNDKEIIKRAVERHDIDSSIFQGRYVNFTQGKYTDEFIYGRYQMFEEIDRILSSLPKGAKVLDLGCGTGHFSTYIKTLCYEVTGLDPSTKMLDYARQNFPEITFVEGYSNALPFEDNTFDLIISIEVLRYLDTKIVLESYEEIYRTLKPNGKMFITHVNTLATEGYYIFYHLKKLAHSFKGKEYHSAYFTSANKEERTLKKIGFKNISCIGRMFATVRTGYKFGKTIGKTYAKLLEKFNPKQRFEKSHFKNFTGHLIVIAEK | not soluble |
| HGTMEVPINRTYSCSKEGAESPKTPACQEAKRVGGTQAMYDWNGINQNPPGDNHQSVVPDGTLCGGGQAKFKGFNLARTDWPTTNIVPDAKGNFEFIYTATMPHATKYFKFYVTRNGWNPNQPLKWSDLEPFGTYNGNPPLDDKQRYHMTMKLPTGKTGRHIIYNVWKRSDSEEAFYSCSDVNFTN | not soluble |
| MIKVGICDTTFARYDMGGAAIDELKKHTAGIKIIRRTVPGIKDLPVACKKLIEEEGCEMVMALGMPGPEEKDKVCAHEASTGLIQAQLMTNTHILEVFVHEDEEDDPEELKVLADNRAREHAQNLIMMLFKPDRLTREAGMGLREGKPDAGPL | not soluble |
| GHMSETYDFLFKFLVIGNAGTGKSCLLHQFIEKKFKDDSNHTIGVEFGSKIINVGGKYVKLQIWDTAGQERFRSVTRSYYRGAAGALLVYDITSRETYNALTNWLTDARMLASQNIVIILCGNKKDLDADREVTFLEASRFAQENELMFLETSALTGENVEEAFVQCARKILNKIESGELDPERMG | soluble |
| MSLYGRHTISIILREIFRLMDYPSIDTLLESAHIVTLPMKYPFMGLSERQAVLFEGPNSWAEYSPFMGCNDTRMWLASAIEYGWGNTNVLSVPNLDLDNTNFASRSKYGYIANPQTSNKDHSDNKRFYTQTKNHREIPVNAILPDIPASKMSEILGKDLQGCKCVKIKVGKHFQDRDIHRIRAVLDFMGADTMLRLDANCKWNVSETLNNLDVLEDNDLLENVSYIEQPCRTTRELITLKQKMDTRGYVTKIAIDESLRDLLLHWQKNRKWSNNSGITYTTELRETLSACDMLVLKLQPMGGMRAVADLLESIKNNIKVNVGYTVSSSLETSLGIEMGLALALNLPNITLPVGLATAGLLDADITDDPLLPNKGYITPRKIEVNKKLLNRYAADKRHVVWWHRRIRAAHRALFQDLSDEGHHHHHH | not soluble |
| MPTIQSVRRTQSGRPGKRAINLSLSADVLDAARQLDINISQVCDTYLREVVRHEQERRWREEHADFITAYNATIEAENLPLDEWRSF | not soluble |
| MGSDKIHHHHHHMNQNRIPLYEALIEFKERRPLSFHVPGHKNGLNFPQGAVEEFKDILSIDVTELSGLDDLHSPFECIDEAQQLLADVYEVEKSYFLINGSTVGNLAMILSCCREHDIVLVQRNCHKSIINGLKLAGANPIFLDSWIDEAYNVPVGIHDEIIKEAIEKYPNAKALILTHPNYYGMGMDLEASIAYAHAHKIPVLVDEAHGAHFCLGGAFPKSALAYGADIVVHSAHKTLPAMTMGSYLHINSRLVKEERVSTYLSMLQSSSPSYPIMASLDIARFTIARIKEKGHDEIVEFLREFKEELSSIPQIAILQYPLQDELKVTVQTRCQLSGYELQSVLEKVGIYTEMADPYNVLFILPLQVNKTYMKAVEMIRAALQSYEVKDKTESIRYTYKGEISPLPYTYKQLEGYETKVVSVEEAVGMIAAEMVIPYPPGIPLIMYGERITSEHKEQIMHLERAGARFQGSTKYMKVYDIESRF | not soluble |
| SMAGCVVIVGSGVIGRSWAMLFASGGFQVKLYDIEQQQIRNALENIRKEMKLLEQAGSLKGSLSVEEQLSLISGCPNIQEAVEGAMHIQECVPEDLELKKKIFAQLDSIIDDRVILSSSTSCLMPSKLFAGLVHVKQCIVAHPVNPPYYIPLVELVPHPETAPTTVDRTHALMKKIGQCPMRVQKEVAGFVLNRLQYAIISEAWRLVEEGIVSPSDLDLVMSEGLGMRYAFIGPLETMHLNAEGMLSYCDRYSEGIKHVLQTFGPIPEFSRATAEKVNQDMCMKVPDDPEHLAARRQWRDECLMRLAKLKSQV | soluble |
| MKFLFIVQGEGRGHLTQAITLEEILRRNGHEVVEVLVGKSSSRRLPGFFNRNIHAPVKRFVSPNFLPTPANKRVSLMRSVAYNLVKLPVYINSINYIRQRIEASGADRVINFYELLTGLTYFLFRPSVPQICIGHQYLFLHKSFEFPKADKVSLALLKFFTVLTSLGAKERLALSFRHMKDDPQNHIRVIPPLLRREVTLHEPYSGDYIHGYMVNAGFSENVMKWHRQHPGIPLRFFWDKWEEEPVKRVDNTLSFYQLDDVEFLRQMAGCKAYASTAGFESVCEAMYLGKPILMVPAHIEQDCNAYDAEKSGAGIISSDFNLQQLLEFAKDYHPNRDFVYWVRGAEYTLLNLLESDSSNYQQVLFNEMYLVEEFI | not soluble |
| MSLNSLLLVSRIYQQTCIDDLAQLANEVKASFVRLVNEDANSHMIGTAMSTIGRAFTQRIIELVEAELGAAPLPYCFVAFGSMGRDEQLIVTDQDNALILDDRYDVQQHGAYFAQFAELVCRGLDRCGYPLCDGEIMASNPKWRMTRKEWETCFADWIDNPNPQALLNASIFFDLDGVYGRTKWAEQLSGFIVRRARRNQRFLACLARNALNRTPPLGFFKNFVMEKDGRHNNSINLKRRGTAPLADLIRVHALAAGSRAKNSFERLDDVIEAGLLPQGKGKDLRDALEFIAMVRIRHQAIDVEQEREADNSIEPEHLSDFERRNLKDAFQILSNGQNYLKYRYQANQHFKEGHHHHHH | soluble |
| MAHHHHHHMQANLWLKGQTSTPLQRICDPVPNLLISQSSQGGQRALWLLHRPESVLGLVVSPQWQGESGDHELCDASVVSKRKIVRVMKHLHSLPFRVAGSSPLRPPMVVHKNHLVGWRIDGKAAPLYAHTLDQLAKLKPTQFKTIEPKNAFICRTYYEWDNWKEVSMEPGWTWHHVDEEIANNILDGTLTFDGLRATATDTP | soluble |
| MADTGEVQFMKPFISEKSSKSLEIPLGFNEYFPAPFPITVDLLDYSGRSWTVRMKKRGEKVFLTVGWENFVKDNNLEDGKYLQFIYDRDRTFYVIIYGHNMCSEYRDFPQVAVEVDDYENGEEEEDGDDQDKHQ | soluble |
| MGSDKIHHHHHHMKVFVTGATGFIGASIARELLKDGCHVRVLARPGSDRRNLDGLDVEVCEGDLCSPESLDRGVKGCEVLYHAAADYRLWTRNPAAMYAANVEGTRHVLDAALRHGVSRVVYTSSVGTLGNPGDGTPGTEATPVTFADMVGDYKKSKFLAEREAETFLARGLPLVIVNPSTPVGPHDVKPTPTGKIIVDFLNRAMPAYLDTGLNIIDVEDCAQGHILAAQHGRIGEKYILGHENLTLRQIFSLLETVTGLAAPKVRLPYLPILAAAYANEALSRITGREPLIPLAGVQMARKFMYFDSSKAVKELGLPQRPAVEALGRAVEWFRANGYVR | not soluble |
| MGSDKIHHHHHHMSGTLITSDVDVDAHGKQQAYLRVPHSVHRSAYGWIPVPIAVIRNGDGPTLVISAGVHGDEYEGQIAVATLIRTLDATDIRGRLILLPMVNVPAAEAGCRTSPIDAGNLNRLYPGDPKGMPSQMIAHFHEEVILPLADYAVDLHSGGSSLIYPATVMRGPSHSPQEEDGLATLVDAFDLPYTWVFQGGGGRDSTARTAMGAANRKGVINVMAELGGAGCVTPDVLHRTERGLRRILHAVGMLPGYVPDGAQGTRAVSVQGSVYAFETGVFEPLKSIGGDVVKGEAVAHIHHPETPGKAPDVVLSPHAGMVLAMRAMAQVRRGDALYQIAADAG | not soluble |
| MGSDKIHHHHHHKLFAAHGVDKVRLTGGEPTIRKDIVHIVEGISSTPGIKEVGITTNGLVLQRFLPQLRDAGLTKINISIDSLDREKFAKMTRRDGFDKVWKAIELARGYYPKVKLNVVVLKHQNENEVVDFVNLTKDRNLDVRFIEFMPFGGNEFKNDNFIGYREMLNLIVDKYGDGVIRLSDSPNDTTKAYKIDGFQGQFGFITSMSDHFCNTCNRLRITADGNL | not soluble |
| MKELETRIIDIDVEKLRETLNKLGAKNVKRENQTNDIFDFPDRKLLDKKGYARIRTVEDLINNKTVYFMTTKKMLSQDKFKVMEENETIIEDGAMGKNIFKSLGLELFETIKKYRESYKYKDSLIEIDINDPSFCPFPYIEIETSSEEKLNEILIDLGYSMEDTTSKTIYEILKDKGISPDSNKKGLLEHHHHHH | soluble |
| MSLELYAASYILPIASPPIPGGAVAVHDGCIVETGTLAELRSRHSGPVHDFPGCAILPGLVNAHTHLELTHFPSWKIRKGIDYSPRTYVDWIIQVIKIRRALSPQELELSVREGLRICLEAGTTAIGEILTDRSLIPLYADSGLRGRLLFEAIGHDPVRNAQLVEELDAAIASFSGGSFLPGISPHAPHTVAEHLHQDVYRLAYERNVPRVIHLAESREESDFFFDSSGKIAEFLYPHVRWESYLPAPRRTTATAWLDGLGVLNGTISAVHCVHLTPSDAEILAKRGVGVVLCPRSNDKLAVGRAPVVLLKRLGVPLALGTDSLASNDSLSLWDEMRYLLDTFPGIFTPTEALSMTTIGSARQLALADRTGSLDKGKHADFLVMKLPGRNGSGEALHEALIHSGEILQVFLAGNLVVSREAFSEGHHHHHH | soluble |
| MRHYKTLRYYETVFAVKPTLSEEEMKKKFEQVKEFIKQKGGEILYEEDWGMRQLAYPIQKFNNARYFLVQFKTENPQLPNELDFQLKIDEDVIRWLNIQIKESEVKKNAQ | soluble |
| MIKNNIKHTWYFGHPQQLVWDYLTKPELLSQWLMESDFQPVAGHTFMFNTKPKVKVGFDGLIYCQVLKVQPDHELEHHHHHH | soluble |
| RNVDAALFGMISLYAQTKVIDTIIYGSDAGSKASIITAHPDEIAGRIIRELDRSATILPGKGAYSGRETSVVLCTVRKSEFARLKRIIHETDENAFVMVTETTEVIGLGFKDFSDAVQ | not soluble |
| MCMMSHNKAFFLSLQHAAVSGVAVCLSVRRGAGSVPAGNRGKKTIITEYRITGTRALARCPTKPVTSMWNSSWTSRLEHHHHHH | not soluble |
| MIKIVTDNFLYEKEKVLALRYMYDSAKKPGITIITVTNKQKYIKNIMDNFRRCLYPKKEFIIILNDTKLQTSLYKNYFSKTKNLKLFKVDSSYSLGECLNLAISKSNYNYIAKMDDDDYYGSHYILDSMNAFNYTDASIIGKATHFIYFEDRTLLNLWCQGNENTYATSVAGATFVMKKSIFNKVKFNSLNNGEDIDLLSQCNNLGIKIYSCSKFNYVYNRHASPDNHSWKISNDLLVKRSIKLCITKSYKRIVHILEHHHHHH | not soluble |

Source: the DeepSol protein solubility set
